For 1 molecule, Kd, koff and kon results are on record in patent US20250026846A1 (JCR PHARMACEUTICALS, published 2025).

This test deals with T1, recombinant human TfR (r human TfR: Sino Biological Inc.), hTfR extracellular region with a histidine tag at … (human, UniProt P02786 89-760).
T1 construct: Bought from Sino Biological; also called r human TfR-ECD (Histag); recombinant hTfR; not shown: histidine tag at the N-terminus
Description: BLI (Octet RED96), His-tagged TfR ECD on Ni-NTA sensor. (In general: Biolayer interferometry detects binding as a change in optical thickness at a sensor tip.)

B1: Fab GS3-PPT1 (other)
light: DIVMTQTPLSLSVTPGQPASISCRSSQSLVHSNGNTYLHWYLQKPGQSPQLLIYKVSNRFSGVPDRFSGSGSGTDFTLKISRVEAEDVGVYYCSQSTHVPWTFGQGTKVEIKRTVAAPSVFIFPPSDEQLKSGTASVVCLLNNFYPREAKVQWKVDNALQSGNSQESVTEQDSKDSTYSLSSTLTLSKADYEKHKVYACEVTHQGLSSPVTKSFNRGEC
heavy: EVQLVQSGAEVKKPGESLKISCKGSGYSFMNYWLGWVRQMPGKGLEWMGDIYPGGDYPTYSEKFKVQVTISADKSISTAYLQLSSLKASDTAMYYCARSGNYDEVAYWGQGTLVTVSSASTKGPSVFPLAPSSKSTSGGTAALGCLVKDYFPEPVTVSWNSGALTSGVHTFPAVLQSSGLYSLSSVVTVPSSSLGTQTYICNVNHKPSNTKVDKKVEPKSCDKTHTGGGGSGGGGSGGGGSDPPAPLPLVIWHGMGDSCCNPLSMGAIKKMVEKKIPGIYVLSLEIGKTLMEDVENSFFLNVNSQVTTVCQALAKDPKLQQGYNAMGFSQGGQFLRAVAQRCPSPPMINLISVGGQHQGVFGLPRCPGESSHICDFIRKTLNAGAYSKVVQERLVQAEYWHDPIKEDVYRNHSIFLADINQERGINESYKKNLMALKKFVMVKFLNDSIVDPVDSEWFGFYRSGQAKETIPLQETSLYTQDRLGLKEMDNAGQLVFLATEGDHLQLSEEWFYAHIIPFLG
notes: also called Fab HC-GS3-PPT1
As a reminder, the Kd is the equilibrium constant for the complex coming apart. The koff is the first-order rate constant of dissociation. For orientation: kon means a measure of how fast the partners come together. As for B1, the dissociation constant (Kd) was under 1 pM, the dissociation rate constant (koff) is under 1e-07 s⁻¹ and the kon was determined as 417000 M⁻¹ s⁻¹.
